Consider one molecule from US20260029420A1, “ANTI-CB2 ANTIBODIES AND THEIR USE IN A FLOW CYTOMETRY ASSAY TO MEASURE CELL SURFACE CB2 EXPRESSION” (Hoffmann-La Roche Inc., priority 2022, published 2026).

What all share (format): binding
The target in experiment [1] is T1, CHO-A2 mCB2 (Mus musculus, UniProt P47936).
T1 construct: expressed in transfected cells
Briefly: Immunofluorescence on methanol-fixed transfected cells. More on the design: key to immunofluorescence signal intensity: “−” no fluorescence detected; “+”-“++++” intensity of fluorescent signal; “+”-“++++” intensity of fluorescent signal; “+”-“++++” intensity of fluorescent signal; “+”-“++++” intensity of fluorescent signal. As to the method:
(§1) The positive clones (Table 1) were further characterized by immunofluorescence (IF; Table 2), Western Blot (Table 3, 1) and Immune precipitation (Table 4, 2) on full length hCB2, hCB1, mCB2 stable-transfected CHO-cell lines in addition to the 2 pANITA constructs.
(§2) For IF analysis, methanol-fixed cells were incubated for 20 min in a humid chamber at 37° C. with the respective hCB2 and mCB2 clones. After rinsing twice and washing for 15 min in PBS, 125 μg/ml FITC-conjugated […] anti-mouse IgG antibodies (RAM/IgG (H+L)/FITC, Nordic
(§3) Immunological Laboratories) diluted in PBS was added and incubated for 20 min in a humid chamber at 37° C. Cells were rinsed twice and washed for 15 min in PBS, mounted with mounting solution (50% PBS 50% glycerol) and covered with a coverslip. Staining was assessed by fluorescence microscopy on a Leica CTR500 fluorescence microscope and a Leica DFC300 FX digital camera.

Experiment [2] addresses T2, CHODukx CRE hCB1 Cl.20 (Homo sapiens, UniProt P21554).
T2 construct: expressed in transfected cells
Described as above. Also noted: key to immunofluorescence signal intensity: “−” no fluorescence detected; “+”-“++++” intensity of fluorescent signal; “+”-“++++” intensity of fluorescent signal; “+”-“++++” intensity of fluorescent signal; “+”-“++++” intensity of fluorescent signal. As to the method:
as §1, §2, §3

The target of experiment [3] is T3, CHODukx CRE hCB2 Cl.90 (Homo sapiens, UniProt P34972).
T3 construct: expressed in transfected cells
T3 sequence (P34972 whole entry): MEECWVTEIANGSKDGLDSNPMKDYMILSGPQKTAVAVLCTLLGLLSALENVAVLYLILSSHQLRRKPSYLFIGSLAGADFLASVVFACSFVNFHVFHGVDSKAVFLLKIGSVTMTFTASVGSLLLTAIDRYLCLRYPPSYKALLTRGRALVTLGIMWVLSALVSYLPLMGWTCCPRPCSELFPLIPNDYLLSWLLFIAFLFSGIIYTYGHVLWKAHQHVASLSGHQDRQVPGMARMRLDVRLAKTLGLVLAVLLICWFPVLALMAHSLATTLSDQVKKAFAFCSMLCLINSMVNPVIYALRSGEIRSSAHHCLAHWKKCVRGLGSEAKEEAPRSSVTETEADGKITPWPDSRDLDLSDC
Described as above. Also noted: key to immunofluorescence signal intensity: “−” no fluorescence detected; “+”-“++++” intensity of fluorescent signal; “+”-“++++” intensity of fluorescent signal; “+”-“++++” intensity of fluorescent signal; “+”-“++++” intensity of fluorescent signal. As to the method: as §1, §2, §3

Experiment [4] addresses T1, CHO-A2 mCB2. Briefly: Western blot of cell lysates. As to conditions: CHO-A2 mCB2 lysate. More on the design: key: “−” no signal; “+”-“+++++” signal intensity; “+”-“+++++” signal intensity; “+”-“+++++” signal intensity; “+”-“+++++” signal intensity; “+”-“+++++” signal intensity. As to the method:
as §1
(§4) For Western blot analysis, cells were collected using enzyme free dissociation buffer (Cell dissociation buffer enzyme-free Hanks'-based, Gibco), and washed two times with PBS. To prepare cell lysate, 10^6 cells were lysed with 0.1 ml of lysis buffer (1% NP40, 10% glycerol, 2 mM EDTA, 137 mM NaCl, 20 mM TrisHCl, pH8, Protease Inhibitors) for 10 min on ice. The lysate was cleared by centrifugation at 20′000 g for 5 min. For SDS-PAGE cell lysate was resolved on precast 4-12% gradient gels (NuPAGE® Novex 4-12% Bis-Tris Gel, Invitrogen) with MES running buffer according to the manufacturer's directions. The separation of proteins was visualized by Colloidal Blue staining. The proteins were electrophoretically transferred to nitrocellulose membrane using a dry-blotting system (iBlot, Invitrogen). After blocking the membrane for 16 h in blocking buffer (5% Milk in PBS) at 4° C., specific proteins were detected with appropriate dilutions of mAbs in blocking buffer for 1 h at approximately 20° C. […]
(In general: Immunoblotting shows a protein as a band on a membrane.)

The target of experiment [5] is T3, CHODukx CRE hCB2 Cl.90. Briefly: Western blot of cell lysates. Also noted: key: “−” no signal; “+”-“+++++” signal intensity; “+”-“+++++” signal intensity; “+”-“+++++” signal intensity; “+”-“+++++” signal intensity; “+”-“+++++” signal intensity. As to conditions: CHODukx CRE hCB2 Cl.90 lysate. The protocol: as §1, §4

T1 sequence (P47936 whole entry): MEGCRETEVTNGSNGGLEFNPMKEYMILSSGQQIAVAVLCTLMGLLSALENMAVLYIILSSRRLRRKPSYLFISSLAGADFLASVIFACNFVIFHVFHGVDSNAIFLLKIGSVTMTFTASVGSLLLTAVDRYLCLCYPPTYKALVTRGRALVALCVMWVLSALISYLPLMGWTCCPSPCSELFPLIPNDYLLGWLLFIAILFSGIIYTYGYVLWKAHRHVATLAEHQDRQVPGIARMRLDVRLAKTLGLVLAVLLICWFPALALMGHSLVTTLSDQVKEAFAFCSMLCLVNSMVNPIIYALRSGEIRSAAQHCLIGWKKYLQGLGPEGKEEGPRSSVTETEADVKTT
T2 sequence (P21554 whole entry): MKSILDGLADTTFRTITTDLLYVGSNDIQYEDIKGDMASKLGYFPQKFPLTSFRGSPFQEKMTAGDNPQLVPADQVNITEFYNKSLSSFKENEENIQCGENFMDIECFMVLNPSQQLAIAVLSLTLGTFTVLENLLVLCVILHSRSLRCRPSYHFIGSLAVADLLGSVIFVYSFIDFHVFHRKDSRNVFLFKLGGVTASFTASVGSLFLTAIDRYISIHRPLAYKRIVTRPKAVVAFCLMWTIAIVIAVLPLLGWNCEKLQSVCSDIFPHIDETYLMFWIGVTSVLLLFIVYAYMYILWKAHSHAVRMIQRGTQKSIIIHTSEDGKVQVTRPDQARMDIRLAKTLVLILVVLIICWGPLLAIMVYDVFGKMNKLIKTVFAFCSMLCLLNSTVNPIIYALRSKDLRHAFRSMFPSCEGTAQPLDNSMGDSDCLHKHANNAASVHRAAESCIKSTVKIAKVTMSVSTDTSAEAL

B1: hCB2-1/622: murine IgG3 monoclonal anti-human CB2 antibody, VH SEQ ID NO: 1, VL SEQ ID NO: 2, HC SEQ ID NO: 3, LC SEQ ID NO: 4 (antibody)
heavy: EVQLQQSGPELVKPGASVKISCKTSGYTFTEYTMHWVRQSHGKSLEWIGGIDRYNGDTYYNQKFKDKATLTVDRSSSTAYMELRSLTSEDSAVYFCARNGAMDYWGQGISVTVSSATTTAPSVYPLVPGCSDTSGSSVTLGCLVKGYFPEPVTVKWNYGALSSGVRTVSSVLQSGFYSLSSLVTVPSSTWPSQTVICNVAHPASKTELIKRIEPRIPKPSTPPGSSCPPGNILGGPSVFIFPPKPKDALMISLTPKVTCVVVDVSEDDPDVHVSWFVDNKEVHTAWTQPREAQYNSTFRVVSALPIQHQDWMRGKEFKCKVNNKALPAPIERTISKPKGRAQTPQVYTIPPPREQMSKKKVSLTCLVTNFFSEAISVEWERNGELEQDYKNTPPILDSDGTYFLYSKLTVDTDSWLQGEIFTCSVVHEALHNHHTQKNLSRSPGK
light: DVVMTQTPLSLPVSLGDQASISCRSSQSLVHSNGNTYLHWFLQKPGQSPKLLIYKVSIRFSGVPDRFSGSGSGTDFTLKISRVEAEDLGVYFCSQSTHVPPLTFGAGTKLELKRADAAPTVSIFPPSSEQLTSGGASVVCFLNNFYPKDINVKWKIDGSERQNGVLNSWTDQDSKDSTYSMSSTLTLTKDEYERHNSYTCEATHKTSTSPIVKSFNRNEC
Take B1: the immunofluorescence signal intensity entry in experiment [1] (CHO-A2 mCB2 cells) is given as “−”; in experiment [2] (CHODukx CRE hCB1 Cl.20 cells), “−”; in experiment [3] (CHODukx CRE hCB2 Cl.90 cells) it was “+++”. Moreover, the “immunofluorescence staining” value in experiment [1] (cells expressing mouse CB2) is listed as “no staining”; in experiment [2] (cells expressing human CB1) it was “no staining”; in experiment [3] (the two cell lines expressing human CB2), “high fluorescent signal intensities”. The “Western Blot signal intensity” value in experiment [4] and in experiment [5] was “−” in each case.
